B1: Zif in vivo target (three pairs of sites) (dsDNA)
DNA 1: GCGTGGGCGTGCGTGGGCGGGCGTGGGCGTGCGTGGGCGGGCGTGGGCGTGCGTGGGCG
DNA 2: CGCCCACGCACGCCCACGCCCGCCCACGCACGCCCACGCCCGCCCACGCACGCCCACGC
B2: 4Z in vivo target (three pairs of sites) (dsDNA)
DNA 1: GCGGCGGAGGAGTGCGGCGGAGGAGGAGCGGCGGAGGAGTGCGGCGGAGGAGGAGCGGCGGAGGAGTGCGGCGGAGGAG
DNA 2: CTCCTCCGCCGCACTCCTCCGCCGCTCCTCCTCCGCCGCACTCCTCCGCCGCTCCTCCTCCGCCGCACTCCTCCGCCGC

How the values were obtained:
[1] = biological target: ZEV (Zif268 zinc fingers - estrogen receptor - VP16 activator) (synthetic construct, UniProt P18146 SEQ:1-87); assay: cell_activity; yeast reporter, modified GAL1 promoter, 15 min after beta-estradiol
[2] = biological target: 4ZEV (designed four zinc finger - estrogen receptor - VP16 activator) (synthetic construct); assay: as above; conditions: tags: 4Z DBD replaces Gal4 DBD of GEV

| Binder | activity [1] | activity [2] |
| --- | --- | --- |
| B1 | > 50 fold induction of GFP transcripts | – |
| B2 | – | > 50 fold induction of GFP transcripts |
